Reference: the supplement of paper PMC12042874
± gives the uncertainty stated by the source.

Assay: amyloid nucleation score (Sup35N fusion, yeast selection) (log enrichment); library NNK2; higher = more nucleation; inactive = no reads after selection
Summary of the method: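 After 24 hours of induction with 100 μM copper sulfate, psi-negative yeast expressing peptides of 20 random codons fused to Sup35N were grown for 7 days at 30°C on medium lacking adenine and uracil. Input and output plasmid inserts were sequenced with Illumina, and sequences with under 100 input reads were discarded. Scores for nucleation are the DiMSum log enrichment of output over input reads, centred on the mode score of non-aggregating sequences.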

Row | Substance | amyloid nucleation score
1 | ELLIHDEYDILMCN | 0.136 ± 0.36
2 | INVHSSSG | 0.344 ± 0.36
3 | RCIDFDSSCASTNYGSVLWA | 1.09 ± 0.38
4 | ALATFVTPVAESA | 4.05 ± 0.05
5 | NVVKTWPIYIMRPLWTAHSN | -0.641 ± 0.31
6 | VEVGLIVGSCSILI | -0.525 ± 0.64
7 | NPTLGHKNVFVRYSF | 2.9 ± 0.14
8 | VIIINIVFKSGMGQLLGHRR | 6.53 ± 0.074
9 | RVLREKCSIGVAGKYSY | -0.512 ± 0.49
10 | RFWLNCCWRTCSTTFLNWMK | 0.472 ± 0.6
11 | LNNHTPDLVWRSSVIGRCQK | 0.47 ± 0.48
12 | RDVFDMSSPTIAQCNVVRGM | -0.448 ± 0.32
13 | IYCIFRTSKLMNGVMVHSRQ | -0.454 ± 0.37
14 | ELFFCFKRLHGLMGYNDLES | 4.13 ± 0.063
15 | RTRCYCVYFRLLVHFA | 0.057 ± 1.1
16 | SFWLTMMCNVGTMALVLSNL | -0.065 ± 0.31
17 | DQSGDQARNCKCFGSSL | 0.298 ± 0.5
18 | NKWSPEGNSACRDSVCTHIY | -0.807 ± 0.76
19 | HMYLDMPAQLTS | 2.69 ± 0.062
20 | KFTLCWRTRMAFMSPWLMRI | inactive
21 | LCHKATSSFYPW | -0.808 ± 0.45
22 | NLRLDIAFSPWPRSGYNSGS | 0.292 ± 0.64

Row | Substance | amyloid nucleation score
23 | KTCVPDYNNGWRFDFAYLD | -0.795 ± 0.45
24 | TYIRSVYDAFAC | inactive
25 | LSWITPIKIGISFSLALIFT | -0.974 ± 0.49
26 | FSRMPLMDESFWFTCSICVM | 2.64 ± 0.068
27 | IHAFLALVNCNDTSTKTEVK | -0.435 ± 0.56
28 | RLSGRVTCSVNVGHSLKGTV | 4.529 ± 0.045
29 | VNFLWE | -0.447 ± 1.1
30 | DDMTGDHRPSFRSMIMVGVI | 0.918 ± 0.67
31 | ETGCLRARAVATGVLGRREK | 0.171 ± 0.65
32 | CPRLCLMLLPFKTCMIGTRE | 0.57 ± 0.81
33 | GITCCSMSRRFCFRGEGTEW | 3.81 ± 0.074
34 | LKLASSGVHCLLFSYCRMAE | 0.69 ± 0.62
35 | YSKTLERVDSSVD | 1.26 ± 0.38
36 | GGWRVSGNTSRSISRPCWRG | 0.483 ± 0.27
37 | MRWGY | -0.393 ± 1
38 | QTMMTTRKCSPLRLVLSQRL | -0.161 ± 1.1
39 | TTIFGNSATLDGIPHIIKRP | -0.268 ± 0.79
40 | VTVSVGSLYTNFATPKDRMV | 0.357 ± 0.36
41 | SCSVCWSLSMV | 1.31 ± 0.36
42 | VVDCKGVLLAFSNRIFGWTT | -0.064 ± 0.76
43 | EIFIPCEWGIVIHQGHAVSQ | 4.46 ± 0.076
44 | PLISRYDYFVCIRILSHSDN | 0.98 ± 0.81

Row | Substance | amyloid nucleation score
45 | PAITFSSYQSIANYWRGPRM | 7.899 ± 0.026
46 | TIMYYVWCLFFWMCLGYGHS | 1.53 ± 0.1
47 | YSENNLIG | inactive
48 | VIEMRHDRFFTVYSVEITAG | 0.623 ± 0.52
49 | DNSAGDLYNSSVTGSPVMQL | -0.447 ± 0.22
50 | GIHLVFGFMEWRVMSTLKVS | -0.584 ± 0.64
51 | PISWGRLFNMVPR | -0.98 ± 0.55
52 | YYLNSTSGKDR | inactive
53 | YFRYMLW | 4.16 ± 0.1
54 | LWSRVVVWQDRYVV | inactive
55 | PPWCLNVCDMLRRSHLAFKR | -0.213 ± 1.1
56 | KTTLVHFFVAREYLWRRMWG | 4.38 ± 0.084
57 | FKRPDSKIVCDVNVKGALKE | inactive
58 | ISLISHVLANLSVIRDHANE | -0.68 ± 0.4
59 | LSLFHPCLL | -0.182 ± 0.3
60 | ASMYLNSSH | inactive
61 | LLHSWSYRCV | 0.039 ± 0.77
62 | LFSHELADSSTVMKYTWWAV | 4.23 ± 0.045
63 | ILISIISFTKSCNISISLEW | -0.603 ± 1.1
64 | LPGLIGS | 1.96 ± 0.26
65 | FNLLEVTRPPMRMMGMM | 2.3 ± 0.076
66 | GYGDGILVSFSC | -0.986 ± 0.76

Row | Substance | amyloid nucleation score
67 | SEWSTYLCSSNI | inactive
68 | LSYRTCYRNMP | 0.328 ± 0.46
69 | HHNTCKGM | 4.35 ± 0.062
70 | LLRVDRCCWDN | -0.011 ± 0.54
71 | PLLVLVNFLSGKSPQAHCSH | 3.07 ± 0.077
72 | YLTSINLRVGGSWLCNNGRM | 1.96 ± 0.14
73 | PCRRYRVLFWGGSLVSSMGK | 3.3 ± 0.07
74 | MNVDGNFWAGVELTYIEGSS | -0.587 ± 0.79
75 | GVGVLGVLNYVCWLMQCCGL | 0.987 ± 0.22
76 | ISESLSRWART | 3.69 ± 0.12
77 | SSKKCDNRGLMLWVRGILVA | -0.059 ± 0.24
78 | PSNTIYHFIAELNEYETPRF | 0.426 ± 0.15
79 | IFTKNFIPCDFFMS | -2.05 ± 0.76
80 | QNGTERGFFCSKLNRSVTLL | 0.358 ± 0.65
81 | ECNQCWNMGMM | -0.252 ± 0.76
82 | PRSNCLHCFLLPLSNIVLCA | 4.66 ± 0.049
83 | IHGVFCEFVRIIRNVGSAIR | -0.226 ± 0.35
84 | REFLIYFCFQIMCCRTYGPA | 5.125 ± 0.046
85 | ANRKRVK | 0.223 ± 0.61
